Residue numbers refer to the chain shown, from its start.

The labels stand for the following.
T1: hFR3^D2Fc (human, UniProt P22607 143-250)
T1 construct: Only domain 2 of the entry stood in the assay; also called product of pChFR3^D2Fc; not shown: human Fc
T1 sequence: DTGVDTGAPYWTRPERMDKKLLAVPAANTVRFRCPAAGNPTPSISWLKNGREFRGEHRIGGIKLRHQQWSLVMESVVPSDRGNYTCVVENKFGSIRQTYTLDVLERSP

T2: FR1exFc (UniProt P11362 22-376, limits assumed)
T2 construct: extracellular domain; also called FGFR1/Fc; FR1/Fc; not shown: Fc part; the construct of FR1exFc is not described
T2 sequence (looked up): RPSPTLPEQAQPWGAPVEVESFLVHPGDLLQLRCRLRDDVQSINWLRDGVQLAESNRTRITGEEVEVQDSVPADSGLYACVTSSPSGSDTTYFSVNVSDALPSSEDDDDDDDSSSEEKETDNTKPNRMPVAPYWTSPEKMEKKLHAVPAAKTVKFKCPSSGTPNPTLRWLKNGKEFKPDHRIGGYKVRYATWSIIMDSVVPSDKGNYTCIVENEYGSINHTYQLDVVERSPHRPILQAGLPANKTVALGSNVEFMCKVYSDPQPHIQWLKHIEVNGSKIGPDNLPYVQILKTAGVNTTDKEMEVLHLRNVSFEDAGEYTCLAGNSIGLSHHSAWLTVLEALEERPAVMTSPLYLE

B1: MSPRO11 (Fab, V domains shown)
VH: QVQLVQSGAEVKKPGASVKVSCKASGYTFTSYYMHWVRQAPGQGLEWMGWINPNSGGTNYAQKFQGRVTMTRDTSISTAYMELSSLRSEDTAVYYCARYYGSSLYHYVFGGFIDYWGQGTLVTVSS
VL: DIALTQPASVSGSPGQSITISCTGTSSDVGGYNYVSWYQQHPGKAPKLMIYDVSNRPSGVSNRFSGSKSGNTASLTISGLQAEDEADYYCQSHHFYEVFGGGTKLTVLG
B2: MSPRO28 (Fab, V domains shown)
VH: QVQLVQSGAEVKKPGSSVKVSCKASGGTFSSYAISWVRQAPGQGLEWMGGIIPIFGTANYAQKFQGRVTITADESTSTAYMELSSLRSEDTAVYYCARGGGWVSHGYYYLFDLWGQGTLVTVSS
VL: DIQMTQSPSSLSASVGDRVTITCRASQGISSYLAWYQQKPGKAPKLLIYAASSLQSGVPSRFSGSGSGTDFTLTISSLQPEDFAVYYCFQYGSIPPTFGQGTKVEIKR
B3: MSPRO24 (Fab, V domains shown)
VH: QVQLVQSGAEVKKPGSSVKVSCKASGGTFSSYAISWVRQAPGQGLEWMGGIIPIFGTANYAQKFQGRVTITADESTSTAYMELSSLRSEDTAVYYCARVNHWTYTFDYWGQGTLVTVSS
VL: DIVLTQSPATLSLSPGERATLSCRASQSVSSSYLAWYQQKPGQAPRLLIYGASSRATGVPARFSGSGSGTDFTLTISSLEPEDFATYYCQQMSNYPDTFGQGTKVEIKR
B4: MSPRO26 (Fab, V domains shown)
VH: QVQLVQSGAEVKKPGASVKVSCKASGYTFTSYYMHWVRQAPGQGLEWMGWINPNSGGTNYAQKFQGRVTMTRDTSISTAYMELSSLRSEDTAVYYCARGYWYAYFTYINYGYFDNWGQGTLVTVSS
VL: DIALTQPASVSGSPGQSITISCTGTSSDVGGYNYVSWYQQHPGKAPKLMIYDVSNRPSGVSNRFSGSKSGNTASLTISGLQAEDEADYYCQSYDNNSDVVFGGGTKLTVLG
B5: MSPRO29 (Fab, V domains shown)
VH: QVQLVQSGAEVKKPGASVKVSCKASGYTFTSYYMHWVRQAPGQGLEWMGWINPNSGGTNYAQKFQGRVTMTRDTSISTAYMELSSLRSEDTAVYYCARTWQYSYFYYLDGGYYFDIWGQGTLVTVSS
VL: DIVLTQSPATLSLSPGERATLSCRASQSVSSSYLAWYQQKPGQAPRLLIYGASSRATGVPARFSGSGSGTDFTLTISSLEPEDFATYYCQQTNNAPVTFGQGTKVEIKR
B6: MSPRO54 (Fab, V domains shown)
VH: QVQLVQSGAEVKKPGASVKVSCKASGYTFTSYYMHWVRQAPGQGLEWMGWINPNSGGTNYAQKFQGRVTMTRDTSISTAYMELSSLRSEDTAVYYCARNMAYTNYQYVNMPHFDYWGQGTLVTVSS
VL: DIELTQPPSVSVAPGQTARISCSGDALGDKYASWYQQKPGQAPVLVIYDDSDRPSGIPERFSGSNSGNTATLTISGTQAEDEADYYCQSYDYFKLVFGGGTKLTVLG
B7: MS-Pro-2-dHLX-MH (Fab, V domains shown)
VH: QVQLVQSGAEVKKPGASVKVSCKASGYTFTSYYMHWVRQAPGQGLEWMGWINPNSGGTNYAQKFQGRVTMTRDTSISTAYMELSSLRSEDTAVYYCARDFLGYEFDYWGQGTLVTVSS
VL: DIELTQPPSVSVAPGQTARISCSGDALGDKYASWYQQKPGQAPVLVIYDDSDRPSGIPERFSGSNSGNTATLTISGTQAEDEADYYCQSYDYSADYVFGGGTKLTVLG
notes: Fab mini-antibody format Fab-dHLX-MH, a dimer of the Fab monomer made as a fusion protein; also called MSPRO2 dimeric dHLX format; Fab-dHLX
B8: MS-Pro-12-dHLX-MH (Fab, V domains shown)
VH: QVQLKESGPALVKPTQTLTLTCTFSGFSLSTSGVGVGWIRQPPGKALEWLALIDWDDDKYYSTSLKTRLTISKDTSKNQVVLTMTNMDPVDTATYYCARYHSWYEMGYYGSTVGYMFDYWGQGTLVTVSS
VL: B6 VL with Y92F, F93D, K94F, L95A
notes: Fab mini-antibody format Fab-dHLX-MH, a dimer of the Fab monomer; also called MSPRO12 dimeric dHLX format; Fab-dHLX
B9: MS-Pro-21-dHLX-MH (Fab, V domains shown)
VH: B3 VH with V99D, H101W, W102F, T103K, Y104P, T105F, F106S, Y108V
VL: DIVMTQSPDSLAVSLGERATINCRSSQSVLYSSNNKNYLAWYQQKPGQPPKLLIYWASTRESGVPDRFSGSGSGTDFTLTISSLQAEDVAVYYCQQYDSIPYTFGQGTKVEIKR
notes: Fab mini-antibody format Fab-dHLX-MH, a dimer of the Fab monomer; also called MSPRO21 dimeric dHLX format; Fab-dHLX

T4 sequence (chain, as listed by the source limits assumed): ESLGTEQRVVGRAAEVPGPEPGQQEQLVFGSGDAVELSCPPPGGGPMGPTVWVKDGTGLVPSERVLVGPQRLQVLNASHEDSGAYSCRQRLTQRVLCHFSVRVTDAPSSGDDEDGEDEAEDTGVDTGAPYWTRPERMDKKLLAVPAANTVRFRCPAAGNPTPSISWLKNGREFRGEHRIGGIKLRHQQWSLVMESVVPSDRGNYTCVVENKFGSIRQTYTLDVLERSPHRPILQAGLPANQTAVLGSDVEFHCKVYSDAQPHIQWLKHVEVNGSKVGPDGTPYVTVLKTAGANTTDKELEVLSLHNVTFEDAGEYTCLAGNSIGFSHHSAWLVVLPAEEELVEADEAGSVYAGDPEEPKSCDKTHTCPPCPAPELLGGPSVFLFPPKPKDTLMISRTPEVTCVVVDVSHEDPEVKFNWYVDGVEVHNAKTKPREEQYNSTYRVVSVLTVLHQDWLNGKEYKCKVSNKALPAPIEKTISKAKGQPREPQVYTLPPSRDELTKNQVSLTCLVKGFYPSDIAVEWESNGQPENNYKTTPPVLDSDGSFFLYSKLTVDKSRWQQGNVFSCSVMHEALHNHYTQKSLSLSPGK

The first assay has as its target T1, hFR3^D2Fc. The experiment in a line: ELISA, Fc fusion anchored on an anti-human Fc coated plate, bound Fab detected with HRP anti-human Fab. The source says:
Constructs comprising cDNAs that code for segments of the extracellular domain of FGFR3 were generated (FIG. 10). D2 comprises Ig domain 2, D2-3 comprises Ig domains 2 and 3, and D1-3 comprises Ig domains 1, 2 and 3. These constructs include pChFR3^D2Fc that codes for Ig-like domain 2 of FGFR3 and pChFR3^{D2,3}Fc that codes for domain 2 and 3, both as human Fc fusions. The corresponding chimeric proteins, as well as the control hFR3exFc (containing domains 1, 2 and 3) were anchored to an ELISA plate coated with a human Fc antibody. A panel of 8 best Fabs, MSPRO2, 11, 12, 21, 24, 26, 28 and 29, were added, and bound Fab was determined with HRP-α human Fab (FIG. 11). […] Both bind to the Ig like domain 2 while the others require domain 3 for binding. It was then tested whether or not Fabs that belong to the second group would distinguish the FGFR3IIIc isoform from the FGFRIIIb from. FDCP-FR3IIIb or FDCP-FR3IIIc cells were incubated in the presence of 1.25 ng/ml FGF9 with increasing doses of either MSPRO12 or MSPRO29. Ly6.3 was included as control. After 2 days in culture, cell proliferation was measured with the XTT reagent. Clearly, MSPRO29 (open triangle) was completely ineffective against the IIIb isoform (FIG. 12).
On the technique in general: ELISA stands for enzyme-linked immunosorbent assay.
On to B1, for which the binding result is recorded as “no binding”.
As to B2, the binding result is listed as “no binding”.
Same read-out and setting: as for B3, the entry is “no binding”; as for B4, “no binding”; as for B5, “no binding”.

A further assay deals with T3, FGFR3 (wild type) on cells (human, UniProt P22607 23-806). The experiment in a line: cell-based or functional assay.
T3 sequence (P22607 23-806 limits assumed): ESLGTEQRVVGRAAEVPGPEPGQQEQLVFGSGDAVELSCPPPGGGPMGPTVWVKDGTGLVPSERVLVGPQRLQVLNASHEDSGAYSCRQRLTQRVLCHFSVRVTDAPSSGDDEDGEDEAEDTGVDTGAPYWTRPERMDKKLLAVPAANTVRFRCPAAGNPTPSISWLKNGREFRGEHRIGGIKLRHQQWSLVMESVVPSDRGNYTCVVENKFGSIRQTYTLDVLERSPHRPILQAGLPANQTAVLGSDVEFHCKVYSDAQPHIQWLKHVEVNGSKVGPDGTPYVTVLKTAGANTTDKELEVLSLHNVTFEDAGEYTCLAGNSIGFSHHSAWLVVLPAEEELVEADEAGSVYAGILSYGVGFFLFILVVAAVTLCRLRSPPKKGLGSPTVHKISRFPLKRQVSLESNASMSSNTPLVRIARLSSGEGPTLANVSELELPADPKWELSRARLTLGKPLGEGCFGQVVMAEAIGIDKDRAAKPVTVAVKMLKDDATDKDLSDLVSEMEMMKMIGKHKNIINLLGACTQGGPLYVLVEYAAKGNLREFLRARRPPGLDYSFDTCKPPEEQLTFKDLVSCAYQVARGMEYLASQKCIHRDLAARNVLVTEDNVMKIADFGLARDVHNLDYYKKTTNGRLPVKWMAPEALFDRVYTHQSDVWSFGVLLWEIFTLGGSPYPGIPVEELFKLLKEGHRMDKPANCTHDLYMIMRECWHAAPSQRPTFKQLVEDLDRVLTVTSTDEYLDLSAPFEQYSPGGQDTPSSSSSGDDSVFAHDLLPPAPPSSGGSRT
B1: the “IC50 FR3 (FGF9), FDCP-FGFR3 proliferation assay” value (“IC50 FR3 (FGF9)” for short) was 220 nM.
For B6, the “IC50 FR3 (FGF9)” value came to 45 nM.
The same measure, in the same setting: next, B2: 50 nM; B3: 70 nM; B4: 70 nM.
Consider B5, for which the “IC50 FR3 (FGF9)” value came out at 20 nM.

Another assay addresses T4, FR3exFc (human).
T4 construct: also called FGFR3/Fc; FR3/Fc
The assay can be described thus: BIACORE, FGFR3 captured on an anti-Fc chip. As for the experimental part: (§1) The affinity measurements were performed by BIACORE® analysis according to the standard procedure recommended by the supplier (Pharmacia). The anti-Fc antibody was coupled via the EDC/NHS chemistry to the chip and subsequently FGFR3 was captured. The Fabs of the invention were then bound to this surface.
The Kd is the concentration at which binding is half-saturated. Take B1: the Kd was 4 nM.
Same read-out and setting: next, B2: 9 nM; B3: 10 nM; B4: 4 nM.
Same read-out and setting: next, B5: 6 nM.

The target of the next assay is T2, FR1exFc. The assay can be described thus: ELISA, FGFR/Fc captured on anti-human Fc coated plate, detection with anti-human Fab-HRP.
On to B7, for which the binding result is on record as “no binding”.
Still for that read-out and setting: next, B8: “no binding”.

Another assay has as its target T4, FR3exFc. The assay can be described thus: BIACORE, FGFR3 captured on an anti-Fc chip. The source holds these as a separate data set. As for the experimental part: as §1
A general note: In SPR one partner is held on a chip, and binding of the other changes the refractive index at the surface.
For B1, binding was characterised by a dissociation constant (Kd) of 4 nM.
Same read-out and setting: as for B6, the figure is 3.7 nM.
The molecule B2 displayed a Kd of 9 nM.
Consider B3, for which the Kd stood at 10 nM.
For the molecule B4, the Kd stood at 4 nM.
B5: binding was put at a Kd of 6 nM.

The next assay addresses T3, FGFR3 (wild type) on cells. The experiment in a line: indirect FACS-Scatchard.
Molecule B1 had a Kd of 4 nM.
Still for that read-out and setting: as for B2, the figure is 0.3 nM.
Same read-out and setting: next, B3: 0.3 nM; B4: 1.4 nM.
In turn, B5 came in with a Kd of 0.4 nM.

The target of the next assay is T3, FGFR3 (wild type) on cells. The assay can be described thus: cell-based or functional assay. The source holds these as a separate data set.
Take B5: the “amount of Fab that inhibits FGFR3 activation (JNK signaling) in RCJ-FR3 cells” value was less than 5 µg.

The target of a further assay is T3, FGFR3 (wild type) on cells. The assay can be described thus: cell-based or functional assay. This is another data set of the same source.
As to B7, the “IC50, FDCP-FGFR3 proliferation assay with FGF9, dimeric dHLX format” value (“IC50 … dimeric dHLX format” below) was determined as 61 nM.
For B8, the “IC50 … dimeric dHLX format” value came out at 26 nM.
As to B9, the “IC50 … dimeric dHLX format” value turned out to be 20 nM.
As to B4, the “IC50, FDCP-FGFR3 proliferation assay with FGF9, monomeric Fab (in parentheses)” value is 70 nM.

Another assay deals with T4, FR3exFc. The assay can be described thus: BIAcore, Fab-dHLX-MH miniantibody; Fab-dHLX-MH miniantibody (dimer).
B7 yielded a Kd of 4.3 nM.
Regarding B9, the Kd is 2.2 nM.

A further assay addresses T2, FR1exFc. The assay can be described thus: Affinity to FGFR1 (BIACORE and/or FACS).
With B6, binding was put at a Kd of 2.5 nM.
The same measure, in the same setting: as for B2, the figure is 160 nM; as for B4, 32 nM; as for B5, 29 nM.

For a further assay, the target named is T3, FGFR3 (wild type) on cells. The experiment in a line: FACS. Background: Flow cytometry measures light scatter and fluorescence of single cells or particles in a stream.
B1 yielded a Kd of 4 nM.
On the same count and under the same terms, next, B2: 0.3 nM; B4: 1.4 nM; B5: less than 1 nM.

Another assay deals with T4, FR3exFc. The experiment in a line: BIAcore; number in parentheses taken as the monomeric Fab. As for the experimental part:
as §1
As to B1, the Kd is 4 nM.
As for B2, the Kd was determined as 9 nM.
Still for that read-out and setting: next, B3: 10 nM; B4: 4 nM.

A further assay concerns the target T4, FR3exFc. The experiment in a line: BIACORE. As for the experimental part: as §1
In general, koff refers to the rate constant with which the complex falls apart. For B1, the koff amounted to 0.0004 s⁻¹.
On the same count and under the same terms, next, B6: 0.002 s⁻¹; B2: 0.004 s⁻¹.
B3: the koff came to 0.0054 s⁻¹. This koff and that of the molecule before are within 1.5-fold of each other.
The same measure, in the same setting: as for B4, the figure is 0.0005 s⁻¹; as for B5, 0.0014 s⁻¹.

For the next assay, the target named is T4, FR3exFc. The assay can be described thus: BIAcore, Fab-dHLX-MH miniantibody.
The molecule B8 yielded a Kd of 1.2 nM.

The values above are taken from patent US20090202547A1 (FIBRON, published 2009).
